From the supplement of paper PMC12042874
± gives the uncertainty stated by the source.

Test: amyloid nucleation score (Sup35N fusion, yeast selection) (log enrichment); library NNK1; higher = more nucleation; inactive = no reads after selection
How it was run: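 DiMSum was used to calculate nucleation scores as log enrichment of output over input reads, centred on the mode score of non-aggregating sequences. Sequences with fewer than 100 input reads were not scored. Input and output came from Illumina sequencing of plasmid inserts in psi-negative yeast expressing peptides of 20 random codons fused to Sup35N, induced 24 hours with 100 μM copper sulfate and then grown 7 days at 30°C on medium lacking adenine and uracil.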

Substance | amyloid nucleation score
VTRYRTLTRHWWS | 0.277 ± 0.39
VTSYFKIRLCFPRGMASCTR | 3.37 ± 0.19
VTYSYASGDGPDSLWCT | -0.026 ± 0.84
VTYVMCFAMEMMVGRCRWGG | -0.029 ± 1.4
VVESTGFIWAGEWVLWIEFS | -0.356 ± 0.82
VVIVGAGIPWILGESAVFRC | 0.218 ± 0.36
VVKSSTPSSDPTTASRIWLL | -0.26 ± 0.43
VVLTYSWGAYRY | 1.26 ± 0.23
VVMLSVSPLTIHRGSFRDCS | 2.97 ± 0.1
VVNLWTQADIMRSSCRLKHV | 0.074 ± 0.19
VVQFKMWACQTFFMDLRNTM | 1.56 ± 0.11
VVRLG | 0.124 ± 1
VVVCAVHDDYSINRAIEDER | -0.183 ± 0.4
VVVVDDHDDVALSFIHTMSR | 0.164 ± 0.43
VVVVIFDFRCNKLQ | 2.28 ± 0.2
VVVYGCLYILVARRYDTIAW | 0.493 ± 0.84
VVYHAFDALLNLCRSSYRGH | -0.811 ± 0.52
VWCVVVCMSRQGKYTLCRWR | 0.444 ± 0.97
VWDRWDSGHVCYSNMAVWNV | 0.536 ± 0.36
VWELGPFCDLEVRYV | 0.531 ± 0.52
VWFIVLSRGQFHICFYGQG | -1.32 ± 2.7

Substance | amyloid nucleation score
VWFNPYLNDRSREGGRVVWM | 0.099 ± 0.27
VWGQRGSGSNSCLEW | 0.15 ± 0.68
VWKDRPEMYSCGHCIEMRAE | 0.039 ± 0.37
VWLRNTKEMCFV | 1.64 ± 0.11
VWMLTMSAFKVYWLNFINYA | -0.037 ± 0.22
VWNYVYGMMWCM | 5.54 ± 0.09
VYASGWAQISVTGGTWLRGD | 0.131 ± 0.42
VYDLS | -0.006 ± 0.72
VYFSSLVIFWYLFLYSFEYL | 0.689 ± 0.48
VYGMITIDNRQVRVVLGFRS | -0.549 ± 0.71
VYGSIKSVEANTVWML | 3.32 ± 0.16
VYGSPPNMWNVV | 0.066 ± 0.79
VYHSCSDMCFKAFQVNTYQC | 1.16 ± 0.66
VYLKEEHGKFAGGPSPRCKP | 0.274 ± 0.46
VYPCACVFYSLGVGLQNEET | 6.27 ± 0.089
VYQVNVGCWSCGCRTVICNR | 7.932 ± 0.045
VYTDLKGENAGGIIYCGIGS | 0.445 ± 0.26
VYTKYICWGCVNAQRFDHGT | 8.269 ± 0.049
VYVDVSFPPPVFEWCGPQIT | 0.392 ± 0.69
VYVFLADNGSDELLMLVLTG | 0.12 ± 0.28
VYVSFTRNCVGCIGLD | 4.62 ± 0.061

Substance | amyloid nucleation score
WALISYGVWGTRTADLCRCH | 0.907 ± 0.65
WARCTGIMFGS | 0.027 ± 0.97
WCCHAGAMFAMAKSL | 0.468 ± 0.62
WCDGYVMFLDTNCIRINHIL | -0.162 ± 0.24
WCSKYCMMPSFPTMSRPVPL | -0.426 ± 0.44
WDEFGVDEWSYWLLLWYVAR | 0.799 ± 0.97
WDLCISINYSVFLNLACSV | 3.25 ± 0.098
WENTSRKYVAANDCARMRLG | -0.281 ± 0.41
WEPTR | 0.174 ± 0.59
WEVVMWRYCAPRTGVLPQKP | -0.535 ± 1.2
WFCVHKTVSLDMASVDRKGQ | 4.8 ± 0.088
WFGDGSCKRWLWGMKVTPED | -0.518 ± 0.69
WFGTHCVLSYVSTFWSLQSV | -0.275 ± 0.24
WFICKYNQFDHDVLFSVSTA | 1.92 ± 0.68
WFIRARFTLGKRNELREVI | 0.647 ± 0.64
WFLCSSRFISLLQ | -1.49 ± 0.47
WFSDMTAFLC | inactive
WFWELGN | 0.201 ± 0.28
WFWMYGKGKESQSVVNGGGT | 0.861 ± 0.53
WGAHCGWQF | -0.749 ± 1.3
